Entries after “also recorded” stand apart in the source; their conditions may differ.
Columns and labels:
[1] = Isothermal titration calorimetry (ITC) of CfAvr4 variants with chitin hexasaccharide; type: binding; conditions: compared with PfAvr4
Method: A stock solution of the monomer of N-acetylglucosamine was prepared by dissolving the dry powder in a buffer containing 10 mM Bis-Tris, pH 6.5, 100 mM NaCl to a concentration of 0.100 g/L using analytic techniques. Standard solution of 0, 0.010, 0.025, 0.050, 0.075 g/L were prepared by serial dilutions. Using glass test tubes and pipets, 100 μL of each standard was mixed with 300μL of concentrated sulfuric acid and vortexed for 10 sec to mix. Solutions were incubated at RT for 10 min and then placed on ice to stop the reaction. […] Analytically prepared solution of the di- and tri-saccharide scaled linearly to the calibration curve. To determine the concentration of the chitin hexasaccharide solutions used in ITC, the solutions were diluted into the dynamic range of the calibration curve (S12 Fig) and subjected to the above procedure.
All ITC experiments were performed on a TA Instruments low volume NanoITC with a 186uL reaction cell and a reference cell filled with degassed Milli-Q grade water. Reactions were run in a buffer containing 10mM Bis-Tris, pH 6.5, 100 mM NaCl. The reservoir solution was filled with protein solution and continuously stirred while Chitin hexasaccharide solutions titrated in 2.5μL aliquots for 19 injections, with an initial 1μL injection, for a total injection volume of 48.5μL. The carbohydrate solutions were made by dissolving the dry powder in buffer to a concentration of 20mM (confirmed using methods described above) and then diluted to the working concentration using the final buffer exchange flow through to match the buffers as closely as possible. The integrated heats, after correction for the heat of dilution were analyzed using the NanoAnalyze software from […]. An individual binding site model was used to fit the binding isotherm. All experiments were replicated a minimum of three times.

[2] = tested on: germlings of Trichoderma viride; experiment: In vitro protection assay of T. viride germlings against chitinases; type: cell-based; conditions: 5 μM protein with chitinases and β-1,3-glucanases
Method: The ability of the WT-CfAvr4 and of ChBD mutants to protect against chitinases was evaluated in in vitro protection assays conducted as described before. Briefly, spores of T. viride (3∙10^3) were pre-germinated overnight at room temperature in 100 μl of half-strength PDB medium in 96 well plates. The following day, 5 μM of WT-CfAvr4 or ChBD mutants were mixed with 7.5 units of Zymolyase (Zymo Research cat. no. E1004) and 0.2 units of bacterial chitinases (Sigma-Aldrich cat. no. C6137) and the mixture was added to the microtitre plate wells containing the pre-germinated spores in a final volume of 150 μl. Plates were incubated at 25°C for 6–8 h before evaluating under the microscope fungal growth and the ability of the proteins to provide protection against chitinases. Zymolase has β-1,3 glucanase and β-1,3-glucan laminaripentaohydrolase activity and is added to the mixture in order to remove the surface glucans from the fungal cell wall and thus expose the underlying chitin layer.

[3] = tested on: Cf-4 immune receptor; experiment: Pure protein infiltrations into tomato leaves of cv Purdue 135 (+ Cf-4), hypersensitive response; type: in vivo; conditions: both 5 μg/ml and 10 μg/ml, 5 dpi
From the text: Tomato seeds were obtained from the Tomato Genetic Resource Center (TGRC) at UC Davis. WT-CfAvr4 and mutants thereof with single point mutations at selected amino acids were produced and purified from E. coli Rosetta-gami B cells as description above. […]

[4] = tested on: tomato leaves of cv Moneymaker (–Cf-4); experiment: Pure protein infiltrations into tomato leaves of cv Moneymaker (–Cf-4), hypersensitive response; type: in vivo
Method: Tomato seeds were obtained from the Tomato Genetic Resource Center (TGRC) at UC Davis. WT-CfAvr4 and mutants thereof with single point mutations at selected amino acids were produced and purified from E. coli Rosetta-gami B cells as description above. Proteins were infiltrated at a concentration of 5 μg/mL and 10 μg/mL into the back side of MM or Purdue 135 tomato leaves using a one mL syringe and the HR response was recorded at 6 days post-infiltrations.

[5] = tested on: Cf-4; experiment: Agrobacterium tumefaciens transient transformation assay (ATTA): co-expression with Cf-4 in Nicotiana benthamiana leaves; type: in vivo; conditions: N. benthamiana, three cell density ratios 0.5:1, 1:1, 2:1
Method: The Agrobacterium tumefaciens transient transformation assay (ATTA) was used for the transient co-expression into leaves of Nicotiana benthamiana of Cf-4 with the WT-CfAvr4 and the mutants thereof tested in this study. Briefly, N. benthamiana plants were grown in a growth chamber with 16 h of artificial light and 70% humidity, at 25°C for 4 weeks. The true mature form of the WT-CfAvr4 (i.e. between Lys30-Gln115) and of the mutants thereof were singly cloned into the binary expression vector pICH47742 downstream of the PR1A signal sequence of Nicotiana tabacum for targeted secretion into the apoplast, and under the control of CaMV 35S promoter and NOS terminator. The tomato Cf-4 was cloned into pMOG800 as descripted before. Binary vector plasmids were transformed into A. tumefaciens strain GV3101 by electroporation. For the ATTA assay, agrobacteria transformed with pMOG800:Cf-4 was grown in 10mL LB-mannitol medium (LB medium with 10 g/L mannitol) amended with 50 μg/mL kanamycin and 25 μg/mL rifampicin, whereas agrobacteria transformed with pICH47742:WT-CfAvr4 or pICH4774:CfAvr4-mutants were grown in LB-mannitol amended with 100 μg/mL carbenicillin and 25 μg/mL rifampicin. All cultures were incubated at 28°C for 2 days, after which period they were pelleted at 2800g for 15 min, re-suspended in MMAi medium (5 g/L Murashige and Skoog basal salts, 20 g/L sucrose, 10 mM MES, and […]) at an optical cell density (A600) of 2.0, and further incubated for 2–4 h at room temperature. Agroinfiltrations were performed by mixing agrobacteria containing pMOG800:Cf-4 with agrobacteria containing pICH47742_WT-CfAvr4 or pICH47742:CfAvr4-mutants at three different ratios of optical cell densities, i.e. A6000.5:A6001.0, A6000.5:A6000.5, and A6000.5:A6000.25 of. The mixture of agrobacteria was infiltrated into the leaves of N. benthamiana plants using a 1 mL syringe and the induction of an HR in the infiltrated leaf sectors was evaluated at 5 days post-infiltrations. Control infiltrations were made using only the pMOG800:Cf-4 transformed agrobacteria and the agrobacteria containing pICH47742:CfAvr4 or the mutants thereof without mixing the two cultures, at cell densities of A6000.25, A6000.5, and A6001.0.

[6] = tested on: subtilisin; experiment: Subtilisin treatment (resistance against proteolytic degradation); type: in vitro ADME; design: key to Stability (Subtilisin assay): S: stable; PU: partially unstable; conditions: 500 ng/μL subtilisin, 30 min, room temperature
Method: The WT-CfAvr4 and selected mutants thereof were exposed to the non-specific protease subtilisin in order to determine their resistance against proteolytic degradation. Treatments with subtilisin were made as previously described with minor modifications. Briefly, 40 μM of the E. coli-produced CfAvr4 and the selected CfAvr4 mutants were mixed with 10 mM of calcium chloride and 500 ng/μL of subtilisin (Sigma-Aldrich) in a total volume of 15 μL. Samples were incubated for 30 min at room temperature, after which period they were denatured by mixing with 10 mM PMSF and SDS-PAGE loading buffer, and heating at 98°C for 10 min. Digestion products were visualized on an SDS-PAGE after staining with Coomassie blue.

B1: WT-CfAvr4: wild-type Avr4 effector protein of Cladosporium fulvum, CBM14 chitin-binding lectin, E. coli-produced mature form Lys30-Gln115 (protein)
chain: KAPKTQPYNPCKPQEVIDTKCMGPKDCLYPNPDSCTTYIQCVPLDEVGNAKPVVKPCPKGLQWNDNVGKKWCDYPNLSTCPVKTPQ
modifications: left off: 6x His (two), N-terminal, cleaved
[1]
  higher binding affinity for (GlcNAc)6 than PfAvr4: 10 fold
[2]
  morphology of hyphae after chitinase treatment: remained morphologically intact
[2]; 6–8 h
  protection of fungal hyphae against chitinases, fungal growth: enabled fungal growth and survival; also recorded: able to protect hyphae
[3]
  Cf-4-mediated HR after protein infiltration: strong and equal in intensity HR; also recorded: strong hypersensitive response (HR); also recorded: strong and equally in intensity necrosis
[4]
  HR after protein infiltration: none of the mutants or the WT-CfAvr4 induced an HR; also recorded: None of the proteins, WT-CfAvr4 or mutants, elicited an HR
[5]
  HR on transient co-expression with Cf-4: strong and similar in intensity HR
[6]
  Stability (Subtilisin assay): S

From article PMC6128652, “Structure of the Cladosporium fulvum Avr4 effector in complex with (GlcNAc)6 reveals the ligand-binding mechanism and uncouples its intrinsic function from recognition by the Cf-4 resistance protein” (PLoS Pathogens, 2018)
